Test results taken from article PMC6989608.

Target: Recombinant PP99 gp55 tail spike protein (Pectobacterium phage PP99)
Experiment: SEC; gel-filtration of purified PP99 gp55 on a calibrated Superdex 200 10 x 300 column; oligomeric state

Recombinant PP99 gp55 tail spike protein (natural protein)
stoichiometry N: 3
